The values that follow come from patent publication US20240226274A1.

The term kon denotes the second-order rate constant of association. The Kd is the constant that tells how readily two partners part at equilibrium. The low end stands for higher affinity, the high end for lower affinity. As a reminder, the koff is the rate constant with which the complex falls apart. Read a low koff as a long-lived complex.

Assay [1] has as its target postfusion RSV A2 F (respiratory syncytial virus A2) (UniProt P03420). As to the kind of experiment: BLI; antibody on Protein A sensor; F protein heated 1 h at 60 C. For orientation: Biolayer interferometry detects binding as a change in optical thickness at a sensor tip.
The target of assay [2] is RSV F DS-Cav1 (respiratory syncytial virus). As to the kind of experiment: BLI; antibody on Protein A sensor, F protein in solution; RT, not heated.
The target of assay [3] is RSV F design R-1b (respiratory syncytial virus (A2 strain)). Described as above.
The target in assay [4] is postfusion RSV A2 F (respiratory syncytial virus A2) (UniProt P03420). The description is as above.
In assay [5] the target is RSV F DS-Cav1 (respiratory syncytial virus). Briefly: BLI; antibody on Protein A sensor; F protein heated 1 h at 55 C.
Assay [6] concerns the target RSV F design R-1b (respiratory syncytial virus (A2 strain)). The assay is described as above.
Assay [7] addresses RSV F DS-Cav1 (respiratory syncytial virus). Briefly: BLI; antibody on Protein A sensor; F protein heated 1 h at 60 C.
The target of assay [8] is hMPV F design M-104 (human metapneumovirus) (UniProt Q6WB98). As to the kind of experiment: BLI; antibody on Protein A sensor; F protein heated 1 h at 55 C.
For assay [9], the target named is hMPV F 115-BV (human metapneumovirus) (UniProt Q6WB98). Briefly: BLI; antibody on Protein A sensor, F protein in solution; RT, not heated.
For assay [10], the target named is hMPV F design M-104 (human metapneumovirus) (UniProt Q6WB98). Described as above.

Several values for one entry are separate records, joined by “and”; a condition that tells them apart may be missing. Equal values may be shown once.

With antibody 131-2A, the kon in assay [1] is 522000 M⁻¹ s⁻¹ and 482000 M⁻¹ s⁻¹ and 452000 M⁻¹ s⁻¹; in assay [2], 8290 M⁻¹ s⁻¹ and 9190 M⁻¹ s⁻¹ and 17600 M⁻¹ s⁻¹; in [3], 47900 M⁻¹ s⁻¹ and 47500 M⁻¹ s⁻¹ and 33700 M⁻¹ s⁻¹; in assay [4], 400000 M⁻¹ s⁻¹ and 409000 M⁻¹ s⁻¹ and 485000 M⁻¹ s⁻¹. Besides, the Kd in assay [2] was 133 nM and 34.4 nM and 17.4 nM; in [3], 6.47 nM and 7.43 nM and 11.9 nM. In addition, the koff in assay [3] was 0.00031 s⁻¹ and 0.000353 s⁻¹ and 0.0004 s⁻¹.

In the case of antibody AM14, the kon in assay [5] was 50300 M⁻¹ s⁻¹ and 58500 M⁻¹ s⁻¹ and 50100 M⁻¹ s⁻¹; in [6] it was 88700 M⁻¹ s⁻¹ and 86300 M⁻¹ s⁻¹ and 99100 M⁻¹ s⁻¹; in assay [2] it was 161000 M⁻¹ s⁻¹ and 204000 M⁻¹ s⁻¹ and 181000 M⁻¹ s⁻¹; in [3], 203000 M⁻¹ s⁻¹ and 227000 M⁻¹ s⁻¹ and 219000 M⁻¹ s⁻¹. Further, the Kd in assay [6] was 0.134 nM and 0.133 nM; in [3], 0.497 nM and 0.489 nM and 0.568 nM. The koff in assay [6] was 1.15e-05 s⁻¹ and 1.31e-05 s⁻¹; in assay [3] it was 0.000111 s⁻¹ and 0.000124 s⁻¹ and 0.000101 s⁻¹.

In the case of antibody D25, the kon in assay [5] is 213000 M⁻¹ s⁻¹ and 160000 M⁻¹ s⁻¹ and 142000 M⁻¹ s⁻¹; in [6], 156000 M⁻¹ s⁻¹ and 120000 M⁻¹ s⁻¹ and 121000 M⁻¹ s⁻¹; in [7] it was 115000 M⁻¹ s⁻¹ and 135000 M⁻¹ s⁻¹ and 132000 M⁻¹ s⁻¹; in [2], 121000 M⁻¹ s⁻¹ and 187000 M⁻¹ s⁻¹ and 149000 M⁻¹ s⁻¹; in assay [3] it was 179000 M⁻¹ s⁻¹ and 144000 M⁻¹ s⁻¹ and 151000 M⁻¹ s⁻¹.

Take antibody MPE8: the kon was 36600 M⁻¹ s⁻¹ and 21700 M⁻¹ s⁻¹ and 25100 M⁻¹ s⁻¹ in assay [8]; 14500 M⁻¹ s⁻¹ and 15200 M⁻¹ s⁻¹ and 10900 M⁻¹ s⁻¹ in assay [9]; 40100 M⁻¹ s⁻¹ and 32400 M⁻¹ s⁻¹ and 42100 M⁻¹ s⁻¹ in assay [10].
